Experimental data taken from article PMC8012715 (Nature Communications, 2021).

Legend:
[1] = target: the molecule itself; assay: AUC; multiwavelength sedimentation velocity (220-300 nm) of protein titrated against (GGTATA)3-repeat DNA, 50 mM sodium phosphate pH 7.4, 150 mM NaCl, 20 °C; oligomer told from the molar ratio of protein to DNA in co-migrating peaks
[2] = target: the molecule itself; assay: AUC; sedimentation velocity, absorbance at 280 nm, NanR alone at 3.3, 10 and 30 uM in 20 mM Tris-HCl pH 8.0, 150 mM NaCl, 20 °C, 50,000 rpm

Row | Protein | binding result [1] | stoichiometry N [2]
1 | truncated NanR construct NanR^33–263 (domain or fragment, E. coli K12, UniProt P0A8W0 33-263, looked up, amplified from nanR and cloned into pET28a; No tag is named) SEMVEEELEQMIRRREFGEGEQLPSERELMAFFNVGRPSVREALAALKRKGLVQINNGERARVSRPSADTIIGELSGMAKDFLSHPGGIAHFEQLRLFFESSLVRYAAEHATDEQIDLLAKALEINSQSLDNNAAFIRSDVDFHRVLAEIPGNPIFMAIHVALLDWLIAARPTVTDQALHEHNNVSYQQHIAIVDAIRRHDPDEADRALQSHLNSVSATWHAFGQTTNKKK | binds | 
2 | Escherichia coli Nan repressor (NanR) (natural protein, E. coli K12, UniProt P0A8W0 1-263, looked up, NanR, GntR-type transcriptional repressor of E. coli K12; the synthesised nanR gene in pET28a; the dimer mass used (59 kDa) fits an untagged chain; Expressed with 100 uM ZnCl2; carries Zn2+; For the crystals the protein was treated in situ with chymotrypsin, and the cut limits are not known; also called wild-type NanR; E. coli NanR) MGLMNAFDSQTEDSSPAIGRNLRSRPLARKKLSEMVEEELEQMIRRREFGEGEQLPSERELMAFFNVGRPSVREALAALKRKGLVQINNGERARVSRPSADTIIGELSGMAKDFLSHPGGIAHFEQLRLFFESSLVRYAAEHATDEQIDLLAKALEINSQSLDNNAAFIRSDVDFHRVLAEIPGNPIFMAIHVALLDWLIAARPTVTDQALHEHNNVSYQQHIAIVDAIRRHDPDEADRALQSHLNSVSATWHAFGQTTNKKK |  | 2
